Measurements published in the Human Domainome abundance scans (Beltran et al. 2025).
± gives the uncertainty stated by the source.

B1: SH3 and PX domain-containing protein 2B, residues 155 to 209; numbered along this chain, A1X283 (parent)
chain: EQYVVVANYQKQESSEISLSVGQVVDIIEKNESGWWFVSTAEEQGWVPATCLEGQ

Variants of: B1
Assay: abundance fitness (aPCA) (normalised: wild type 0, dead -1); higher = more abundant; growth selection in yeast, the domain comes from the species named
Settings: Homo sapiens

Variant | abundance fitness
E42D | 0.086 ± 0.082
E29S | -0.114 ± 0.07
E29L | -0.123 ± 0.088
E29N | 0.021 ± 0.16
E29F | -0.691 ± 0.36
E29A | -0.056 ± 0.08
E29Y | -0.502 ± 0.18
E29R | 0.084 ± 0.079
E29I | 0.133 ± 0.17
C51R | -0.343 ± 0.071
C51E | -0.944 ± 0.19
C51Q | -0.349 ± 0.13
C51G | -0.711 ± 0.08
C51T | -0.222 ± 0.12
Y9N | -0.616 ± 0.22
Y9M | -0.508 ± 0.13
Y9K | -0.619 ± 0.12
Q10D | -0.266 ± 0.18
Q10G | -0.322 ± 0.077
Q10L | -0.044 ± 0.088
Q10M | -0.476 ± 0.14
W35N | -0.193 ± 0.18
W35G | -0.398 ± 0.074
W35R | 0.045 ± 0.073

Variant | abundance fitness
W35V | -0.118 ± 0.07
W35P | -0.621 ± 0.1
W35T | -0.191 ± 0.09
W35D | -0.182 ± 0.14
W35E | -0.173 ± 0.1
W35F | -0.005 ± 0.23
D26S | -0.122 ± 0.096
D26T | -0.109 ± 0.12
D26F | -0.262 ± 0.2
S39M | -0.018 ± 0.11
S39L | -0.329 ± 0.085
S39K | -0.035 ± 0.13
S39C | -0.022 ± 0.11
S39G | -0.107 ± 0.06
S39N | -0.022 ± 0.14
S39T | -0.039 ± 0.095
S39R | -0.009 ± 0.058
I17C | 0.014 ± 0.1
I17N | -0.733 ± 0.47
I17A | -0.201 ± 0.13
I17K | -0.692 ± 0.14
W46K | -0.273 ± 0.14
W46F | -0.036 ± 0.23
W46Y | -0.051 ± 0.22

Variant | abundance fitness
W46E | -0.91 ± 0.14
W46A | -0.599 ± 0.086
Q44I | -0.208 ± 0.28
Q44V | -0.225 ± 0.1
Q44M | -0.122 ± 0.13
Q44R | 0.001 ± 0.06
N8D | 0.04 ± 0.11
N8E | -0.068 ± 0.092
N8H | -0.102 ± 0.13
N8W | -0.524 ± 0.088
N8M | -0.305 ± 0.11
N8L | -0.447 ± 0.075
N8Q | -0.105 ± 0.14
N8A | 0.093 ± 0.081
L52C | -0.227 ± 0.18
L52T | -1.22 ± 0.29
L52P | -0.826 ± 0.24
L52W | -0.775 ± 0.16
L52K | -0.647 ± 0.19
G54E | 0.11 ± 0.13
G54Y | -0.042 ± 0.26
G54H | -0.345 ± 0.2
G54T | -0.069 ± 0.26
G54P | -0.112 ± 0.25

Variant | abundance fitness
G54L | 0.07 ± 0.089
G54F | -0.143 ± 0.12
G54V | 0.008 ± 0.1
G54D | -0.144 ± 0.1
G54N | 0.025 ± 0.12
V6L | -0.199 ± 0.11
V6Q | -0.199 ± 0.14
V6I | 0.054 ± 0.14
V6G | -0.151 ± 0.061
V6S | -0.087 ± 0.11
V24P | -0.135 ± 0.077
V24Y | -0.263 ± 0.17
V24H | -0.284 ± 0.17
V24M | -0.137 ± 0.1
V24S | -0.071 ± 0.077
E53W | -0.477 ± 0.097
E53K | -0.004 ± 0.13
E53Q | 0.027 ± 0.12
E53Y | -0.252 ± 0.15
E53V | -0.128 ± 0.1
E53F | -0.33 ± 0.14
E53T | -0.018 ± 0.095
E53L | -0.2 ± 0.077
E53R | -0.064 ± 0.08

Variant | abundance fitness
Q12M | -0.182 ± 0.14
Q12P | -0.276 ± 0.087
Q12D | -0.241 ± 0.15
Q12E | -0.195 ± 0.14
Q12C | -0.228 ± 0.1
Q12V | 0.02 ± 0.08
Q12F | 0.001 ± 0.16
Q12R | -0.066 ± 0.068
Q12K | 0.013 ± 0.094
V38D | -0.736 ± 0.14
V38K | -1.03 ± 0.2
V38H | -1.13 ± 0.3
V38G | -0.363 ± 0.068
V38Q | -1.08 ± 0.22
V38N | -0.895 ± 0.33
A49Q | -0.327 ± 0.22
A49P | -0.105 ± 0.1
A49K | -0.053 ± 0.12
A49R | -0.146 ± 0.074
A49F | -0.139 ± 0.12
A49H | 0.118 ± 0.14
A49M | 0.003 ± 0.12
A49L | -0.012 ± 0.11
A49T | -0.191 ± 0.15

Variant | abundance fitness
E1S | -0.177 ± 0.31
E1D | -0.108 ± 0.14
E1R | -0.469 ± 0.19
E1A | -0.364 ± 0.17
K11P | -0.034 ± 0.1
K11H | 0.064 ± 0.14
K11R | 0.069 ± 0.065
K11F | -0.689 ± 0.19
T50L | -0.125 ± 0.097
T50Y | -0.095 ± 0.19
T50A | -0.052 ± 0.086
T50Q | -0.161 ± 0.1
V5F | -0.875 ± 0.2
V5G | -0.37 ± 0.064
V5P | -0.892 ± 0.15
V5E | -0.939 ± 0.23
V5M | -0.418 ± 0.15
V5R | -1.04 ± 0.12
V5S | -0.099 ± 0.076
A41E | 0.069 ± 0.093
A41W | -0.376 ± 0.1
A41T | 0.015 ± 0.078
A41S | 0.034 ± 0.073
A41V | -0.127 ± 0.07

Variant | abundance fitness
A41Q | -0.133 ± 0.15
S33Y | -0.074 ± 0.11
S33H | -0.046 ± 0.13
S33W | -0.387 ± 0.12
S33G | -0.088 ± 0.072
I28K | -0.008 ± 0.14
I28G | -0.211 ± 0.059
I28E | -0.475 ± 0.13
I28D | -0.451 ± 0.1
N31D | -0.116 ± 0.077
N31W | -0.367 ± 0.12
N31I | -0.401 ± 0.11
N31Y | -0.255 ± 0.11
N31R | -0.007 ± 0.072
N31E | -0.122 ± 0.094
N31K | -0.028 ± 0.13
L19P | -0.831 ± 0.11
L19M | -0.545 ± 0.15
L19Q | -0.865 ± 0.16
L19W | -0.899 ± 0.11
L19E | -0.768 ± 0.15
L19I | -0.149 ± 0.17
L19N | -0.966 ± 0.16
